US20230250154A1 (CYTONICS, published 2023)

T1: ADAMTS4 (human, UniProt O75173 213-685, limits assumed)
T1 sequence (looked up): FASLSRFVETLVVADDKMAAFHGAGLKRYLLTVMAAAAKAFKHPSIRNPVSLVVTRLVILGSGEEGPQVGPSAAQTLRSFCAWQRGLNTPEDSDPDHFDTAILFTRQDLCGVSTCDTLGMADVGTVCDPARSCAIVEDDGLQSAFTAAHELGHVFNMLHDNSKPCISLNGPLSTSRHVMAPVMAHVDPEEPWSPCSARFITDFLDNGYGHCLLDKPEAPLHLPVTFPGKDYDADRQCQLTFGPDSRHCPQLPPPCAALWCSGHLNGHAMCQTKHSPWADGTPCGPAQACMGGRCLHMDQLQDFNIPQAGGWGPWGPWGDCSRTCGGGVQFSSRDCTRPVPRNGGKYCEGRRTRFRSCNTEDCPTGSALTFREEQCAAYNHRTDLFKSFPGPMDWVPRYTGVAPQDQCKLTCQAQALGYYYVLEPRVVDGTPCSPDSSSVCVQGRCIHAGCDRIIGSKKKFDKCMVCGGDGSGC

T2: ADAMTS5 (human, UniProt Q9UNA0 262-622, limits assumed)
T2 sequence (looked up): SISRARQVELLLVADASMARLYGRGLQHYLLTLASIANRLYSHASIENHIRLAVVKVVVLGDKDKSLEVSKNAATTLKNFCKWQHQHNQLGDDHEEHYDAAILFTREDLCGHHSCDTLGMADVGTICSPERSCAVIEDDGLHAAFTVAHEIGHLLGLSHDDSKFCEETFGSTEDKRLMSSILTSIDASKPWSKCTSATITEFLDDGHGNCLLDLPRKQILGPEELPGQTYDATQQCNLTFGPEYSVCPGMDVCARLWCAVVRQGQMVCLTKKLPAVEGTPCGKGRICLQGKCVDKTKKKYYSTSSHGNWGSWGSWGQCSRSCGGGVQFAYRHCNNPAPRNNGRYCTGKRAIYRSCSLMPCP

B1: Variant A2M, bait region SEQ ID NO 106 (other)
chain: SVSGKPQYMVLVPSLLHTETTEKGCVLLSYLNETVTVSASLESVRGNRSLFTDLEAENDVLHCVAFAVPKSSSNEEVMFLTVQVKGPTQEFKKRTTVMVKNEDSLVFVQTDKSIYKPGQTVKFRVVSMDENFHPLNELIPLVYIQDPKGNRIAQWQSFQLEGGLKQFSFPLSSEPFQGSYKVVVQKKSGGRTEHPFTVEEFVLPKFEVQVTVPKIITILEEEMNVSVCGLYTYGKPVPGHVTVSICRKYSDASDCHGEDSQAFCEKFSGQLNSHGCFYQQVKTKVFQLKRKEYEMKLHTEAQIQEEGTVVELTGRQSSEITRTITKLSFVKVDSHFRQGIPFFGQVRLVDGKGVPIPNKVIFIRGNEANYYSNATTDEHGLVQFSINTTNVMGTSLTVRVNYKDRSPCYGYQWVSEEHEEAHHTAYLVFSPSKSFVHLEPMSHELPCGHTQTVQAHYILNGGTLLGLKKLSFYYLIMAKGGIVRTGTHGLLVKQEDMKGHFSISIPVKSDIAPVARLLIYAVLPTGDVIGDSAKYDVENCLANKVDLSFSPSQSLPASHAHLRVTAAPQSVCALRAVDQSVLLMKPDAELSASSVYNLLPEKDLTGFPGPLNDQDDEDCINRHNVYINGITYTPVSSTNEKDMYSFLEDMGLKAFTNSKIRKPKMCPQLEQYEMHGPEGLRVGESESEGGFAGLPNGKEEEGLGSIPENFFGVKLRKYFPETWIWDLVVVNSAGVAEVGVTVPDTITEWKAGAFCLSEDAGLGISSTASLRAFQPFFVELTMPYSVIRGEAFTLKATVLNYLPKCIRVSVQLEASPAFLAVPVEKEQAPHCICANGRQTVSWAVTPKSLGNVNFTVSAEALESQELCGTEVPSVPEHGRKDTVIKPLLVEPEGLEKETTFNSLLCPSGGEVSEELSLKLPPNVVEESARASVSVLGDILGSAMQNTQNLLQMPYGCGEQNMVLFAPNIYVLDYLNETQQLTPEIKSKAIGYLNTGYQRQLNYKHYDGSYSTFGERYGRNQGNTWLTAFVLKTFAQARAYIFIDEAHITQALIWLSQRQKDNGCFRSSGSLLNNAIKGGVEDEVTLSAYITIALLEIPLTVTHPVVRNALFCLESAWKTAQEGDHGSHVYTKALLAYAFALAGNQDKRKEVLKSLNEEAVKKDNSVHWERPQKPKAPVGHFYEPQAPSAEVEMTSYVLLAYLTAQPAPTSEDLTSATNIVKWITKQQNAQGGFSSTQDTVVALHALSKYGAATFTRTGKAAQVTIQSSGTFSSKFQVDNNNRLLLQQVSLPELPGEYSMKVTGEGCVYLQTSLKYNILPEKEEFPFALGVQTLPQTCDEPKAHTSFQISLSVSYTGSRSASNMAIVDVKMVSGFIPLKPTVKMLERSNHVSRTEVSSNHVLIYLDKVSNQTLSLFFTVLQDVPVRDLKPAIVKVYDYYETDEFAIAEYNAPCSKDLGNADYKDDDDKGASHHHHHH
B2: Variant A2M, bait region SEQ ID NO 107 (other)
chain: SVSGKPQYMVLVPSLLHTETTEKGCVLLSYLNETVTVSASLESVRGNRSLFTDLEAENDVLHCVAFAVPKSSSNEEVMFLTVQVKGPTQEFKKRTTVMVKNEDSLVFVQTDKSIYKPGQTVKFRVVSMDENFHPLNELIPLVYIQDPKGNRIAQWQSFQLEGGLKQFSFPLSSEPFQGSYKVVVQKKSGGRTEHPFTVEEFVLPKFEVQVTVPKIITILEEEMNVSVCGLYTYGKPVPGHVTVSICRKYSDASDCHGEDSQAFCEKFSGQLNSHGCFYQQVKTKVFQLKRKEYEMKLHTEAQIQEEGTVVELTGRQSSEITRTITKLSFVKVDSHFRQGIPFFGQVRLVDGKGVPIPNKVIFIRGNEANYYSNATTDEHGLVQFSINTTNVMGTSLTVRVNYKDRSPCYGYQWVSEEHEEAHHTAYLVFSPSKSFVHLEPMSHELPCGHTQTVQAHYILNGGTLLGLKKLSFYYLIMAKGGIVRTGTHGLLVKQEDMKGHFSISIPVKSDIAPVARLLIYAVLPTGDVIGDSAKYDVENCLANKVDLSFSPSQSLPASHAHLRVTAAPQSVCALRAVDQSVLLMKPDAELSASSVYNLLPEKDLTGFPGPLNDQDDEDCINRHNVYINGITYTPVSSTNEKDMYSFLEDMGLKAFTNSKIRKPKMCPQLEQYEMHGPEGLRVGIPENFFGVTSEDLVVQEAIPMSIPKLRKYFPETWIWDLVVVNSAGVAEVGVTVPDTITEWKAGAFCLSEDAGLGISSTASLRAFQPFFVELTMPYSVIRGEAFTLKATVLNYLPKCIRVSVQLEASPAFLAVPVEKEQAPHCICANGRQTVSWAVTPKSLGNVNFTVSAEALESQELCGTEVPSVPEHGRKDTVIKPLLVEPEGLEKETTFNSLLCPSGGEVSEELSLKLPPNVVEESARASVSVLGDILGSAMQNTQNLLQMPYGCGEQNMVLFAPNIYVLDYLNETQQLTPEIKSKAIGYLNTGYQRQLNYKHYDGSYSTFGERYGRNQGNTWLTAFVLKTFAQARAYIFIDEAHITQALIWLSQRQKDNGCFRSSGSLLNNAIKGGVEDEVTLSAYITIALLEIPLTVTHPVVRNALFCLESAWKTAQEGDHGSHVYTKALLAYAFALAGNQDKRKEVLKSLNEEAVKKDNSVHWERPQKPKAPVGHFYEPQAPSAEVEMTSYVLLAYLTAQPAPTSEDLTSATNIVKWITKQQNAQGGFSSTQDTVVALHALSKYGAATFTRTGKAAQVTIQSSGTFSSKFQVDNNNRLLLQQVSLPELPGEYSMKVTGEGCVYLQTSLKYNILPEKEEFPFALGVQTLPQTCDEPKAHTSFQISLSVSYTGSRSASNMAIVDVKMVSGFIPLKPTVKMLERSNHVSRTEVSSNHVLIYLDKVSNQTLSLFFTVLQDVPVRDLKPAIVKVYDYYETDEFAIAEYNAPCSKDLGNADYKDDDDKGASHHHHHH
B3: Variant A2M, bait region SEQ ID NO 109 (other)
chain: SVSGKPQYMVLVPSLLHTETTEKGCVLLSYLNETVTVSASLESVRGNRSLFTDLEAENDVLHCVAFAVPKSSSNEEVMFLTVQVKGPTQEFKKRTTVMVKNEDSLVFVQTDKSIYKPGQTVKFRVVSMDENFHPLNELIPLVYIQDPKGNRIAQWQSFQLEGGLKQFSFPLSSEPFQGSYKVVVQKKSGGRTEHPFTVEEFVLPKFEVQVTVPKIITILEEEMNVSVCGLYTYGKPVPGHVTVSICRKYSDASDCHGEDSQAFCEKFSGQLNSHGCFYQQVKTKVFQLKRKEYEMKLHTEAQIQEEGTVVELTGRQSSEITRTITKLSFVKVDSHFRQGIPFFGQVRLVDGKGVPIPNKVIFIRGNEANYYSNATTDEHGLVQFSINTTNVMGTSLTVRVNYKDRSPCYGYQWVSEEHEEAHHTAYLVFSPSKSFVHLEPMSHELPCGHTQTVQAHYILNGGTLLGLKKLSFYYLIMAKGGIVRTGTHGLLVKQEDMKGHFSISIPVKSDIAPVARLLIYAVLPTGDVIGDSAKYDVENCLANKVDLSFSPSQSLPASHAHLRVTAAPQSVCALRAVDQSVLLMKPDAELSASSVYNLLPEKDLTGFPGPLNDQDDEDCINRHNVYINGITYTPVSSTNEKDMYSFLEDMGLKAFTNSKIRKPKMCPQLEPAGAARGESESEGGFFGFPIGERESTGGDRGLPIGENEAGGKLRKYFPETWIWDLVVVNSAGVAEVGVTVPDTITEWKAGAFCLSEDAGLGISSTASLRAFQPFFVELTMPYSVIRGEAFTLKATVLNYLPKCIRVSVQLEASPAFLAVPVEKEQAPHCICANGRQTVSWAVTPKSLGNVNFTVSAEALESQELCGTEVPSVPEHGRKDTVIKPLLVEPEGLEKETTFNSLLCPSGGEVSEELSLKLPPNVVEESARASVSVLGDILGSAMQNTQNLLQMPYGCGEQNMVLFAPNIYVLDYLNETQQLTPEIKSKAIGYLNTGYQRQLNYKHYDGSYSTFGERYGRNQGNTWLTAFVLKTFAQARAYIFIDEAHITQALIWLSQRQKDNGCFRSSGSLLNNAIKGGVEDEVTLSAYITIALLEIPLTVTHPVVRNALFCLESAWKTAQEGDHGSHVYTKALLAYAFALAGNQDKRKEVLKSLNEEAVKKDNSVHWERPQKPKAPVGHFYEPQAPSAEVEMTSYVLLAYLTAQPAPTSEDLTSATNIVKWITKQQNAQGGFSSTQDTVVALHALSKYGAATFTRTGKAAQVTIQSSGTFSSKFQVDNNNRLLLQQVSLPELPGEYSMKVTGEGCVYLQTSLKYNILPEKEEFPFALGVQTLPQTCDEPKAHTSFQISLSVSYTGSRSASNMAIVDVKMVSGFIPLKPTVKMLERSNHVSRTEVSSNHVLIYLDKVSNQTLSLFFTVLQDVPVRDLKPAIVKVYDYYETDEFAIAEYNAPCSKDLGNADYKDDDDKGASHHHHHH

These binders were tested against T1, ADAMTS4 (assay: cell-based or functional assay).

In order of rising “Protease Inhibition (% of WT)” value:
1. B2  92 % of WT
2. B1  104 % of WT
3. B3  112 % of WT

These binders were tested against T2, ADAMTS5 (assay: cell-based or functional assay).

In order of rising “Protease Inhibition (% of WT)” value:
1. B1  93 % of WT
2. B3  105 % of WT
3. B2  108 % of WT

The binders below were run against MMP13 (human, UniProt P45452 104-471, limits assumed) (assay: cell-based or functional assay).

In order of rising “Protease Inhibition (% of WT)” value:
1. B1  16 % of WT
2. B3  122 % of WT
3. B2  136 % of WT
